Reference: patent publication US10829528B2, “Therapeutic agents for neurological and psychiatric disorders” (VIB VZW, priority 2016, dated 2020)

Experiments:
Type in all cases: cell-based, mouse
[1] = system: primary hippocampal neurons; assay: mEPSCs & mIPSCs in cultured primary hippocampal neurons (wild type)
Description: mEPSCs & mIPSCs are measured in cultured primary hippocampal neurons at baseline and following acute application of agonists. Excitatory terminals selectively express the sushi domain-containing GABABR1a isoform (ref18), where it functions to inhibit neurotransmitter release (ref 24). Acute exposure of primary hippocampal neurons from wild type mice to 30μM baclofen, a GABABR agonist, or 250 nM sAPPα (Fc cleaved) reduces the frequency of miniature excitatory postsynaptic currents (mEPSCs) by 68% (FIG. 8 a,b) and 39% (FIG. 8 c,d), respectively, with no effect on mEPSC amplitude (FIG. 8e). […] Acute application of 30 μM baclofen or 250 nM purified sAPPα reduces the frequency of miniature inhibitory postsynaptic currents (mIPSCs) by 63% (FIG. 8a, 9a) and 44% (FIG. 8c, 9b), respectively, which is blocked by pretreatment with the GABABR antagonist CGP55845 (CGP, 5 μM) (FIG. 8f, 9d). Application of sAPPα causes a minor (14%) reduction on mIPSC amplitude (FIG. 8e, 9c). […] Baclofen is known to reduce the frequencies of mEPSCs and mIPSCs, which we have also confirmed. […] To confirm that the agonist is acting through GABABR1a, the agonist is tested in cultures with shRNA mediated knockdown of GABABR1a or antisense oligonucleotides mediated exon skipping of the exon encoding the Sushi domain 1 of GABABR1a. Antagonists are tested by treatment in combination with the agonist, Baclofen. […] As an antagonist we test an antibody against the sushi domain sequence (SEQ ID No: 5): […] SWTDMDTPSRCV. An antibody specifically binding to this domain which acts as an antagonist increases the frequencies of mEPSCs and mIPSCs. sAPPα also reduces mEPSC and mIPSC frequency in App/Aplp1 dKO cultures (FIG. 8j, 9f), excluding the possibility that sAPPα interferes with a complex of full-length APP and GABABR1 to exert its effect on GABABR signaling.
Hippocampal neurons were cultured from E18 C57/B16 wild type mice or APP/APLP1 dKO mice (provided by Ulrike Muller46) and plated on poly-D-lysine (Millipore), and laminin (Invitrogen) coated coverslips (Nalge Nunc International). Neurons were maintained in Neurobasal medium (Invitrogen) supplemented with B27, glucose, glutamax, penicillin/streptomycin (Invitrogen) and 25 μM β-mercaptoethanol.
Single neurons from wild type or APP/APLP1 null mutant embryos (E18) were recorded within the large neuronal network at DIV 12-15. The intracellular whole-cell pipette medium contained (in mM): 136 KCl, 18 HEPES, 4 Na-ATP, 4.6 MgCl2, 15 Creatine Phosphate, 1 EGTA and 50 U/ml Phospocreatine Kinase (300 mOsm, pH 7.30). Regular external solution contained 2 mM/2 mM Ca2+/Mg2+(in mM: 140 NaCl, 2.4 KCl, 2 CaCl2), 2 MgCl2, 10 HEPES, 14 Glucose (300 mOsm, pH 7.30)) and TTX (1 μM). Pharmacological reagents (30 μM baclofen, 5 μM CGP), sAPLP1, full length sAPP and sAPP derived peptides (250 nM each) were bath applied (dissolved in external medium described above) using a separate gravity driven application inlet. Recordings were done in whole cell voltage clamp configuration at −70 mV with a double EPC-10 amplifier (HEKA Elektronik) under control of Patchmaster v2×32 software (HEKA Elektronik). Currents were low-pass filtered at 3 kHz and stored at 20 kHz. Patch pipettes were pulled from borosilicate glass using a multi-step puller (P-1000; Sutter Instruments). Pipette resistance ranged from 3 to 5 MΩ and was compensated to 75-80%. Only cells with series resistances <15 MΩ were included in analysis. All recordings were done at room temperature. Spontaneous events were detected using Mini Analysis program (Synaptosoft). mEPSCs and mIPSCs were separated on the basis of their distinct decay kinetics, using a threshold of 5 ms47. Baseline was determined from an average of 60 sec of recordings prior to protein or drug treatment. Effect of treatment was determined from an average of 30 sec recordings after 140 sec of protein or drug treatment.

[2] = system: App/Aplp1 dKO primary hippocampal neurons; assay: mEPSCs & mIPSCs in App/Aplp1 dKO primary hippocampal cultures
Description: mEPSCs & mIPSCs are measured in cultured primary hippocampal neurons at baseline and following acute application of agonists. Excitatory terminals selectively express the sushi domain-containing GABABR1a isoform (ref18), where it functions to inhibit neurotransmitter release (ref 24). Acute exposure of primary hippocampal neurons from wild type mice to 30μM baclofen, a GABABR agonist, or 250 nM sAPPα (Fc cleaved) reduces the frequency of miniature excitatory postsynaptic currents (mEPSCs) by 68% (FIG. 8 a,b) and 39% (FIG. 8 c,d), respectively, with no effect on mEPSC amplitude (FIG. 8e). […]
Single neurons from wild type or APP/APLP1 null mutant embryos (E18) were recorded within the large neuronal network at DIV 12-15. […] Spontaneous events were detected using Mini Analysis program (Synaptosoft). mEPSCs and mIPSCs were separated on the basis of their distinct decay kinetics, using a threshold of 5 ms47. Baseline was determined from an average of 60 sec of recordings prior to protein or drug treatment. Effect of treatment was determined from an average of 30 sec recordings after 140 sec of protein or drug treatment.

[3] = system: cultured hippocampal neurons; assay: FM1-43 dye labeling of presynaptic vesicle recycling
Description: We assessed the effect of sAPPα on synaptic vesicle recycling (ref6) using the activity-dependent dye FM1-43. We measured density (D) and intensity (ΔF) of FM1-43 uptake in presynaptic vesicles turned over by stimulation of 30 action potentials (APs) at a rate of 1 Hz in cultured hippocampal neurons.
The experiments were performed in mature (15-28 days in vitro) cultures. Hippocampal neurons were imaged using a FV1000 spectral Olympus confocal microscope using a 60×1.2 NA water immersion objective. The experiments were conducted at room temperature in extracellular Tyrode solution containing (in mM): NaCl, 145; KCl, 3; glucose, 15; HEPES, 10; MgCl2, 1.2; CaCl2), 1.2; pH adjusted to 7.4 with NaOH. For FM-based imaging and analysis, activity-dependent FM1-43 (10 μM) styryl dye was used to estimate basal synaptic vesicle recycling using previously described protocol48. Briefly, action potentials were elicited by passing 50 mA constant current for 1 ms through two platinum wires, separated by ˜7 mm and close to the surface of the coverslip. The extracellular medium contained non-selective blocker of glutamate receptors (0.5 mM kynurenic acid) to block recurrent neuronal activity. 30 stimuli at 1 Hz were applied during FM1-43 loading, while 800 stimuli at 2 Hz during unloading. The fluorescence of individual synapses was determined from the difference between images obtained after staining and after destining (ΔF). Detection of signals was done using custom-written scripts in MATLAB (Mathworks) as described before48.

B1: sAPPα: soluble amyloid precursor protein α ectodomain; mouse APP695 18-612aa, Fc tag cleaved (protein)
chain: LEVPTDGNAGLLAEPQIAMFCGKLNMHMNVQNGKWESDPSGTKTCIGTKEGILQYCQEVYPELQITNVVEANQPVTIQNWCKRGRKQCKTHTHIVIPYRCLVGEFVSDALLVPDKCKFLHQERMDVCETHLHWHTVAKETCSEKSTNLHDYGMLLPCGIDKFRGVEFVCCPLAEESDSVDSADAEEDDSDVWWGGADTDYADGGEDKVVEVAEEEEVADVEEEEADDDEDVEDGDEVEEEAEEPYEEATERTTSTATTTTTTTESVEEVVRVPTTAASTPDAVDKYLETPGDENEHAHFQKAKERLEAKHRERMSQVMREWEEAERQAKNLPKADKKAVIQHFQEKVESLEQEAANERQQLVETHMARVEAMLNDRRRLALENYITALQAVPPRPHHVFNMLKKYVRAEQKDRQHTLKHFEHVRMVDPKKAAQIRSQVMTHLRVIYERMNQSLSLLYNVPAVAEEIQDEVDELLQKEQNYSDDVLANMISEPRISYGNDALMPSLTETKTTVELLPVNGEFSLDDLQPWHPFGVDSVPANTENEVEPVDARPAADRGLTTRPGSGLTNIKTEEISEVKMDAEFGHDSGFEVRHQK
- reduction of mIPSC amplitude ([1]; 250 nM sAPPα): 14%
- effect on mEPSC amplitude ([1]; 250 nM, acute exposure): no effect
- reduction of mIPSC frequency ([1]; acute application, 30 μM baclofen, 250 nM proteins): 44%
- reduction of mEPSC frequency ([1]; acute exposure, 30 μM baclofen or 250 nM sAPPα (Fc cleaved), wild type mice): 39%
- effect on mEPSC frequency [2]: reduces
- effect on mIPSC frequency [2]: reduces
- reduction of total presynaptic strength (S=ΔF×D) ([3]; 1 μM, 15 min after addition, 30 APs at 1 Hz): 57%
- effect on presynaptic vesicle recycling (in words) ([3]; FM1-43, sAPPαΔExD at 1 μM): dose dependent manner
